From article PMC5704897 (Molecular cell, 2006)
Like-named read-outs stand apart in the source and are kept apart here.

Tests used:
Assay in all cases: native MS
[1] = molecular target: human Cdc37 (human) (UniProt Q16543)
[2] = molecular target: His6-tagged kinase domain of B-Raf (human) (UniProt P15056)
[3] = molecular target: human Cdc37 (human) (UniProt Q16543); remark: listed apart in the source
[4] = molecular target: T1, human Cdc37 (human), Q16543; conditions: remark: other sources report otherwise
T1 chain: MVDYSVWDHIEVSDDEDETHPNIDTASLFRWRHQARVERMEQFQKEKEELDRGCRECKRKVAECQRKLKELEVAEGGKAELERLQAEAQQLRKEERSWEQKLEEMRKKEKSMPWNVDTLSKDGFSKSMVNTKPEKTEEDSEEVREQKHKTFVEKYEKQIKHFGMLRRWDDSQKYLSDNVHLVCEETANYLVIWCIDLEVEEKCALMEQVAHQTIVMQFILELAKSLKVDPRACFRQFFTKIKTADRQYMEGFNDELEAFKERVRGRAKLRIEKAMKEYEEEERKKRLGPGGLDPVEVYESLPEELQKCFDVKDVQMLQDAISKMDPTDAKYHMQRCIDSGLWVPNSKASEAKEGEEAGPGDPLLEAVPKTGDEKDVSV

[5] = molecular target: His6-tagged kinase domain of B-Raf (human, UniProt P15056 457-717)
Chain of His6-tagged kinase domain of B-Raf (P15056 457-717): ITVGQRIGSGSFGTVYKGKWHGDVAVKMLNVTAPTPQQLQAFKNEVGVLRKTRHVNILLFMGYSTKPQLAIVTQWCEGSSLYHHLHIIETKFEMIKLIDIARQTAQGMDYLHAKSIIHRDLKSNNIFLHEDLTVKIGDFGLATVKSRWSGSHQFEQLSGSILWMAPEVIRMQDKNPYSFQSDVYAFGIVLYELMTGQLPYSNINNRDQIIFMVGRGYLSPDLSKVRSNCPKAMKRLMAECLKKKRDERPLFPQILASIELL

Chain of His6-tagged kinase domain of B-Raf (human) (P15056 457-717): as above

## Spodoptera frugiperda Hsp90 homologue (natural protein)
[1]
  stoichiometry N (Hsp90 per Cdc37): 2
[2]
  stoichiometry N (Hsp90 per B-Raf): 2
[3]
  stoichiometry N (Hsp90 per Cdc37): 2

B1: human Cdc37, Q16543 1-378 (natural protein)
chain: T1 chain
modifications: here or on the partner: phosphoserine at 13 (pSer 13); phosphoserine at 13 (pSer 13)
[4]
  stoichiometry N (Cdc37 chains in the oligomer): 2

B2: human Cdc37 (natural protein, UniProt Q16543 1-378, looked up)
chain: T1 chain
modifications: phosphoserine at 13 (pSer 13)
[5]
  stoichiometry N: 1 Cdc37 per B-Raf
